Test results: article PMC12312386, “Multiple transactivation domains of EZH2 bind to the TAZ2 domain of p300 and stimulate the acetyltransferase function of p300” (Biochemical Journal, 2025)

target: p300 TAZ2 domain with 6xHis tag (p300_(TAZ2)-6×His) (human) (UniProt Q09472); assay: MST; p300_(TAZ2)-6×His labelled with RED-tris-NTA, constant at 10 nM; peptide varied by serial dilution; 25 mM Tris pH 7.5, 150 mM NaCl, 2.5 mM DTT; 1:1 stoichiometry fit

| Substance | Kd |
| --- | --- |
| EZH2_(TAD1) peptide (aa 142-154 of EZH2) (from UniProt Q15910 142-154) | 0.52 µM |
| EZH2_(TAD2) peptide (aa 167-185 of EZH2) (from UniProt Q15910 167-185) | 0.31 µM |
| EZH2_(TAD3) peptide (aa 220-231 of EZH2) (from UniProt Q15910 220-231) | 0.53 µM |
